Like-named read-outs stand apart in the source and are kept apart here.
Experiments:
Assay in all cases: cell-based or functional assay
[1] = target: full-length human gastric inhibitory polypeptide receptor on HEK293/CRE-Luc/hGIPR cells (human) (UniProt P48546)
[2] = target: full-length human GLP1R on HEK293/CRE-Luc/hGLP1R cells (human) (UniProt P43220)
[3] = target: full-length human glucagon receptor on HEK293/CRE-Luc/hGCGR cells (human) (UniProt P47871)
[4] = target: full-length human gastric inhibitory polypeptide receptor on HEK293/CRE-Luc/hGIPR cells (human) (UniProt P48546); remark: listed apart in the source
[5] = target: full-length human GLP1R on HEK293/CRE-Luc/hGLP1R cells (human) (UniProt P43220); remark: listed apart in the source
[6] = target: full-length cynomolgus GLP1R on HEK293/CRE-Luc/mfGLP1R cells (cynomolgus) (UniProt F8V479)
Target sequence in this assay (F8V479 entry or part of it): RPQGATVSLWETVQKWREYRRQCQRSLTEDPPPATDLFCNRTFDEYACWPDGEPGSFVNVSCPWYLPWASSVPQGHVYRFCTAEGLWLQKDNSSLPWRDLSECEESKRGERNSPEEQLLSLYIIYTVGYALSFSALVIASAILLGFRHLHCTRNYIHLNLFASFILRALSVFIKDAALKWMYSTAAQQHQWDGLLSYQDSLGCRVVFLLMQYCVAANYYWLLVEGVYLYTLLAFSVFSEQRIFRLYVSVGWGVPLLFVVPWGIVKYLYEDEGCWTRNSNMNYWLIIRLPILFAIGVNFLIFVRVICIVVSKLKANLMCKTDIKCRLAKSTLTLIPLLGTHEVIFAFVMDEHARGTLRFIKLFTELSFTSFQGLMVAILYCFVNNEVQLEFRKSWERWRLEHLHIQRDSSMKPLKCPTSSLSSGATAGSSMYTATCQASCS

[7] = target: full-length human glucagon receptor on HEK293/CRE-Luc/hGCGR cells (human) (UniProt P47871); remark: listed apart in the source
[8] = target: full-length human glucagon-like peptide 2 receptor on HEK293/CRE-Luc/hGLP2R cells (human) (UniProt O95838)
[9] = target: full-length cynomolgus GLP1R on HEK293/CRE-Luc/mfGLP1R cells (cynomolgus) (UniProt F8V479); remark: listed apart in the source
[10] = target: full-length human glucagon-like peptide 2 receptor on HEK293/CRE-Luc/hGLP2R cells (human) (UniProt O95838); remark: listed apart in the source

Sequence of full-length human glucagon-like peptide 2 receptor on HEK293/CRE-Luc/hGLP2R cells (human) (O95838 whole entry): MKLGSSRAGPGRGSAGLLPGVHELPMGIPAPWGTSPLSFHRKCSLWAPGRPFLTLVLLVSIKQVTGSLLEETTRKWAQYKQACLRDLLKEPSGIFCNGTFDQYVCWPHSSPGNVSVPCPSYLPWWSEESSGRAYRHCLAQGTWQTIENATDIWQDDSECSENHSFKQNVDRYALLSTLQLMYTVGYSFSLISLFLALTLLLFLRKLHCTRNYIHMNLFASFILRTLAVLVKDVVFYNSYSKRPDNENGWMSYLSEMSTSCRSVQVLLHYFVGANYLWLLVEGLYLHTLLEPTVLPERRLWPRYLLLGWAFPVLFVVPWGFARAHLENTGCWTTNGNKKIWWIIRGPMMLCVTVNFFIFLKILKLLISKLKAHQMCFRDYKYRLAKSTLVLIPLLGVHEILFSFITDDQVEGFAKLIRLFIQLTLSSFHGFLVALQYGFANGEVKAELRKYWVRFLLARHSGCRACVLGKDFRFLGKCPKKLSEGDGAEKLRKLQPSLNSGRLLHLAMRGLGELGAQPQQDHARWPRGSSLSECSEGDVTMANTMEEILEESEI
Sequence of human GCG (glucagon) (P01275 53-81 limits assumed): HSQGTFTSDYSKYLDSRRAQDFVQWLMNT
Sequence of human GLP2 (P01275 146-178 limits assumed): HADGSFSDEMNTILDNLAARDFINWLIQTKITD
Sequence of full-length human GLP1R on HEK293/CRE-Luc/hGLP1R cells (human) (P43220 24-463): as the sequence (F8V479 entry or part of it) above, with N112S, S120F, G202S, V205L, F237L, R241W, V249I counted along it
Sequence of full-length human gastric inhibitory polypeptide receptor on HEK293/CRE-Luc/hGIPR cells (human) (P48546 22-466): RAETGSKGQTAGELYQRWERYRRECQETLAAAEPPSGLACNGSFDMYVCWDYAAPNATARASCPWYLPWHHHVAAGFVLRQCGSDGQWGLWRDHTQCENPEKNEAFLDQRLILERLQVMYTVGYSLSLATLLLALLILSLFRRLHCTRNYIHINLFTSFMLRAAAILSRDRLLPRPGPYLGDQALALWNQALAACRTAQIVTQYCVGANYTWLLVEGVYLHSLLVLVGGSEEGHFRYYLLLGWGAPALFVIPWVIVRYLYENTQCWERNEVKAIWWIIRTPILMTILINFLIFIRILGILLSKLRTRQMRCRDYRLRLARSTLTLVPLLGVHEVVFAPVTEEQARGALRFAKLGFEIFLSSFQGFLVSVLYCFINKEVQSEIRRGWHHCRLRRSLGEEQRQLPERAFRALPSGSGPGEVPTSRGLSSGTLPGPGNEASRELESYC
Sequence of full-length human glucagon receptor on HEK293/CRE-Luc/hGCGR cells (human) (P47871 26-477): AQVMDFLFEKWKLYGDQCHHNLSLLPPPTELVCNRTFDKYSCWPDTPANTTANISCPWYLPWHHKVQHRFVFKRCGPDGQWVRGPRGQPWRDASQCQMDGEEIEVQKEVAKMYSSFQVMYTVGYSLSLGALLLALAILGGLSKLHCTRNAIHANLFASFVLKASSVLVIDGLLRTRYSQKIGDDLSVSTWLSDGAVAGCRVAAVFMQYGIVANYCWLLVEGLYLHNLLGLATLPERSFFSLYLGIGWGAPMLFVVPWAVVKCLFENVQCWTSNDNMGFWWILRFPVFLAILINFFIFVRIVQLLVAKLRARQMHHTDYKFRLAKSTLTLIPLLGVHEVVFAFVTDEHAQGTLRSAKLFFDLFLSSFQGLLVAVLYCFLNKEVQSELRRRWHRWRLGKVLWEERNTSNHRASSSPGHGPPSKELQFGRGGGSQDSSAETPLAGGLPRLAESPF

Row | Substance | CRE-luc EC50 [1] [nM] | CRE-luc EC50 [2] [nM] | CRE-luc EC50 [3] [nM] | CRE-luc EC50 [4] [nM] | CRE-luc EC50 [5] [nM] | CRE-luc EC50 [6] [nM] | CRE-luc EC50 [7] [nM] | CRE-luc EC50 [8] [nM] | CRE-luc EC50 [9] [nM] | CRE-luc EC50 [10] [nM]
1 | human GLP2 (from UniProt P01275 146-178) (ligand) | > 30 | > 30 | > 30 | > 200 | > 200 | > 200 | > 200 | – | – | –
2 | Isotype control Ab (unconjugated; Q tag none or not stated) (antibody) | > 300 | > 300 | > 300 | – | – | – | – | > 300 | > 300 | –
3 | human GIP (from UniProt P09681 52-93) (ligand) | – | > 30 | > 30 | – | > 200 | > 200 | > 200 | > 30 | – | > 200
4 | human GCG (glucagon) (from UniProt P01275 53-81) (ligand) | > 30 | – | – | > 200 | – | – | – | > 30 | – | > 200
5 | human GLP1 (reference ligand) (from UniProt P01275 98-128) | > 30 | – | > 30 | > 200 | – | – | > 200 | > 30 | – | > 200

Reference: patent US20230330254A1, “ANTI-GLP1R ANTIBODY-TETHERED DRUG CONJUGATES COMPRISING GLP1 PEPTIDOMIMETICS AND USES THEREOF” (Regeneron Pharmaceuticals, Inc., priority 2022, published 2023)
